For assay [1], the target named is T1, Human CD3 on Jurkat cells (human, UniProt P07766 23-207; P09693 23-182; P04234 22-171). Kind of assay: cell-based or functional assay.
The target of assay [2] is T2, Monkey CD3 on cynomolgus HSC-F cells (cynomolgus monkey, UniProt Q95LI5 22-198; Q95LI7 23-181; Q95LI8 22-171).
T2 construct: whole, on cells; also called Monkey CD3-expressing cynomolgus HSC-F cells; cynomolgus monkey CD3-expressing HSC-F cells
Kind of assay: flow cytometry on HSC-F cells.

The target of assay [3] is T1, Human CD3 on Jurkat cells. Put plainly: flow cytometry on Jurkat cells. (Flow cytometry measures light scatter and fluorescence of single cells or particles in a stream.)
Assay [4] concerns the target T3, human MSLN-his (Kaika Biotech, MSL-HM18D) (human, UniProt Q13421 296-580, limits assumed).
T3 construct: Bought protein; also called huMSLN-his; huMSLN; not shown: his tag
Put plainly: ELISA, coated huMSLN-his.

The target in assay [5] is T4, mouse MSLN-his (Kaika Biotech, MSL-MM180) (mouse, UniProt Q61468 298-600, limits assumed).
T4 construct: Bought protein; also called muMSLN-his; muMSLN; not shown: his tag
T4 sequence (looked up): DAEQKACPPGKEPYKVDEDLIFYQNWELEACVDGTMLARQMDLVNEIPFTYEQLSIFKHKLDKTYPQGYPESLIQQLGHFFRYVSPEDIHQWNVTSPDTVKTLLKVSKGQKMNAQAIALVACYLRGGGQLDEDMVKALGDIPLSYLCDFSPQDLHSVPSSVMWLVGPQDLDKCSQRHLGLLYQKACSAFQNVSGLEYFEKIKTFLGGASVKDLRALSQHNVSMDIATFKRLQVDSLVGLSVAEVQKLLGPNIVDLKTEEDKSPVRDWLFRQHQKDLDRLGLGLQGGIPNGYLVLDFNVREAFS
Put plainly: ELISA, coated muMSLN-his. (An ELISA detects its analyte on a solid surface through an enzyme-linked reagent.)

Assay [6] deals with T5, monkey MSLN-his (Kaika Biotech, MSL-CM180) (monkey (cyno)).
T5 construct: Bought protein; also called cynoMSLN-his; cynoMSLN
Kind of assay: ELISA, coated cynoMSLN-his.

Assay [7] has as its target T6, Human MSLN on MC38/MSLN stably transfected cells (Example 5) (human, UniProt Q13421 296-598).
T6 construct: whole, on cells; also called MC38/MSLN cells; huMSLN
Kind of assay: flow cytometry on MC38/MSLN cells.

Assay [8] deals with T7, huMSLN-Fc (Kaika Biotech, MSL-HM280) (human, UniProt Q13421 296-580, limits assumed).
T7 construct: Bought protein; also called huMSLN-hFc; hFc-tagged human MSLN recombinant protein; not shown: Fc (hFc) tag
T7 sequence (Q13421 other isoform, or with tags, fused parts or gaps limits assumed): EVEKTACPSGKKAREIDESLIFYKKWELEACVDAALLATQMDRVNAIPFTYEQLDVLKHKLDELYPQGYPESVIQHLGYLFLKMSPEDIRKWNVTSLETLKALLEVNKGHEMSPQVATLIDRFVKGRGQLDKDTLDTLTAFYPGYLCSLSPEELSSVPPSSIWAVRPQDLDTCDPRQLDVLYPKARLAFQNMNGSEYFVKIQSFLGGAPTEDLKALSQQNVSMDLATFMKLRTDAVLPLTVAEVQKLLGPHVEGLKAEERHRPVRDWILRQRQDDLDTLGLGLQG
Kind of assay: SPR chip (Carterra), 3C6 captured by anti-DYKDDDDK, huMSLN-Fc in flow.

In assay [9] the target is T8, cynoMSLN-Fc (Kaika Biotech, MSL-CM280) (cyno).
T8 construct: Bought protein
Kind of assay: SPR chip (Carterra), 3C6 captured by anti-DYKDDDDK, cynoMSLN-Fc in flow.

We go through two molecules from patent publication US20250059278A1 (SICHUAN HUIYU PHARMACEUTICAL, published 2025).

T6 sequence (Q13421 other isoform, or with tags, fused parts or gaps limits assumed): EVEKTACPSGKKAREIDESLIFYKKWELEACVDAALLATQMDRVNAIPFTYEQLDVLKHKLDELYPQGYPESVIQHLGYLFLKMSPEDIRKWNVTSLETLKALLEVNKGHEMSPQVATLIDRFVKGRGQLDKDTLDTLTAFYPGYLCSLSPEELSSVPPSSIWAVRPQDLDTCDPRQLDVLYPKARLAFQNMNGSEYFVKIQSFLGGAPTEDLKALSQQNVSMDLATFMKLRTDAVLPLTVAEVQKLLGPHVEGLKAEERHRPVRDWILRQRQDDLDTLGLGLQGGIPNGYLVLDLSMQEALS

B1: Control antibody 1-3C6 (bispecific antibody, human IgG1, lambda)
heavy: not shown
light: QAVVTQESALTTSPGETVTLTCRSSTGAVTTSNYANWVQEKPDHLFTGLIGGTNKRAPGVPARFSGSLIGDKAALTITGAQTEDEAIYFCALWYSNLWVFGGGTKLTVLGQPKAAPSVTLFPPSSEELQANKATLVCLISDFYPGAVTVAWKADSSPVKAGVETTTPSKQSNNKYAASSYLSLTPEQWKSHRSYSCQVTHEGSTVEKTVAPTECS
The term EC50 denotes the concentration at which the effect is half-maximal. In the case of B1, in assay [1], the “EC50 (nM), activation of Jurkat-TIGIT-luc cells with MC38/MSLN tumor cells” value was found to be 0.036 nM and the “EC50 (nM), activation of T cell activation signaling pathway, Jurkat-TIGIT-luc cells without tumor cells” value amounted to 0.21 nM. Moreover, the EC50 in [2] worked out at 0.28 nM. In assay [3], this molecule returned an EC50 of 0.222 nM.

B2: MSLN single-domain antibody 3C6 (VHH)
VHH: EVQLVESGGGLVQAGESLRLSCAVSGNIGSIRHMGWHRQDPGKERELVATITTVGTTYYANFVKGRFTISRDNAKNTVYLQMNSLKPEDTGVYYCRATAHPTDYWGQGTQVTVSS
notes: also called MSLN VHH
As usually defined, the Kd is the constant that tells how readily two partners part at equilibrium. A word on the koff: it is the rate constant with which the complex falls apart. Broadly, the kon is a measure of how fast the partners come together. As for B2, the EC50 in assay [4] was 0.463 nM; in assay [5] it was 28.6 nM; in [6] it was 0.788 nM; in [7], 11.8 nM. Besides, the Kd in assay [8] stood at 5.66 nM; in assay [9], 1.04 nM. In addition, the koff worked out at 0.000304 s⁻¹ in assay [8] and 4.69e-05 s⁻¹ in assay [9]. The figures for the association rate constant (kon) in [8] and in assay [9] were 53600 M⁻¹ s⁻¹ and 45300 M⁻¹ s⁻¹, respectively.
